Changes are numbered by the printed parent chain. “And” between values parts separate entries of the source, which are not always exact repeats. Identical values can stand only once.
B1: anti-IL-6R IgG antibody C07 (antibody, V domains shown)
VH: EVKLVESGGGLVQPGGSLKLSCAASGFTFSSYAMSWVRQTADKRLELVANINSNGGSTYYPDSVKGRFTISRDNAKNTLFLQMSSLKSEDTAMYYCAREGYYTMDYWGQGTSVTVSS
VL: DIVLTQSPASLAVSPGQRATISCRASESVDSYGNSFMNWYQQKPGQPPKLLIYLASNLESGVPARFSGSGSRTDFTLTIDPVEADDAATYYCQQNNEDPYTFGGGTKLEIK
B2: anti-IL-6R IgG antibody C20 (antibody, V domains shown)
VH: EVKLMESGGGLVQPGGSLKLSCAASGFTFSNYGMSWVRQTPDKRLELVAIINSNGGSTYYPDSVKGRFTISRDNAKNTLYLQMSSLKSEDTAIYYCARDGNFVSDYWGQGTTLTVSS
VL: B1 VL with P15L, S35R, M37L
B3: anti-IL-6R IgG antibody C09 (antibody, V domains shown)
VH: B2 VH with K3Q, M5V, G10D, I50A, I93M, F102Y
VL: B1 VL with P15L, N38H, Y100W

Key:
human soluble IL-6R = target: T1, human soluble IL-6R (human, UniProt P08887 20-357); test: cell-based or functional assay
T1 sequence: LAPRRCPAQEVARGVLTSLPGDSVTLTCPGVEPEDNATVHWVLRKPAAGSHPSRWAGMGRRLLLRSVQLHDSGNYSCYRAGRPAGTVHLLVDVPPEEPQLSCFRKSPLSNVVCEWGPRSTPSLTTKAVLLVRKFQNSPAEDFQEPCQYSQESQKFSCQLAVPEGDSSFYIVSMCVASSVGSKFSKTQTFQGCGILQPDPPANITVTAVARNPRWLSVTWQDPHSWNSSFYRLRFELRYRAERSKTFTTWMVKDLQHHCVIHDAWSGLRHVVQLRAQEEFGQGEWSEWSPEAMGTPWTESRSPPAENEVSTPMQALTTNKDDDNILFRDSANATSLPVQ

[1] = target: T2, human membrane-bound IL-6R subunit alpha (human, UniProt P08887 20-468); test: cell-based or functional assay
T2 sequence: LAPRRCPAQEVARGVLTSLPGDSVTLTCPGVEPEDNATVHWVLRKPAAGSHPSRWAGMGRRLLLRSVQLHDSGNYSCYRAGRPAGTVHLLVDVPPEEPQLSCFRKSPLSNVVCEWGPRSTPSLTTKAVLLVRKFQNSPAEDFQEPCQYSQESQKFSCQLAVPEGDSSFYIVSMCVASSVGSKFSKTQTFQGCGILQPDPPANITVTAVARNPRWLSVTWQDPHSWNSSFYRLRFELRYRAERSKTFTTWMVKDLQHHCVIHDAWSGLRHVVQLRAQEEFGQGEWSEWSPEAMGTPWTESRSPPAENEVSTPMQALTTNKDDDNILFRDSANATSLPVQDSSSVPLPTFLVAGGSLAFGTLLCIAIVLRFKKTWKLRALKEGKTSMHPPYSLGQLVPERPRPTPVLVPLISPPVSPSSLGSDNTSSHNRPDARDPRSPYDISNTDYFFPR

Proliferation in % (Ba/F3_gp130 cells, IL-6 + sIL-6R = 100%; IL-6 trans signalling) at IgG 10 ng/ml (human soluble IL-6R) | Proliferation in % (Ba/F3_gp130 cells, IL-6 + sIL-6R = 100%; IL-6 trans signalling) at IgG 100 ng/ml (human soluble IL-6R) | Proliferation in % (Ba/F3_gp130 cells, IL-6 + sIL-6R = 100%; IL-6 trans signalling) at IgG 300 ng/ml (human soluble IL-6R) | Proliferation in % (Ba/F3_gp130 cells, IL-6 + sIL-6R = 100%; IL-6 trans signalling) at IgG 500 ng/ml (human soluble IL-6R) | Proliferation in % (Ba/F3_gp130 cells, IL-6 + sIL-6R = 100%; IL-6 trans signalling) at IgG 700 ng/ml (human soluble IL-6R) | Proliferation in % (Ba/F3_gp130 cells, IL-6 + sIL-6R = 100%; IL-6 trans signalling) at IgG 1,000 ng/ml (human soluble IL-6R) | Proliferation in % (Ba/F3_gp130 cells, IL-6 + sIL-6R = 100%; IL-6 trans signalling) at IgG 10,000 ng/ml (human soluble IL-6R) | IC50 for the inhibition of IL-6 classical signalling-induced proliferation (Ba/F3_gp130_IL-6R cells + IL-6) [1] | IC50 for the inhibition of IL-6 mixed signalling-induced proliferation (Ba/F3_gp130_IL-6R cells + IL-6 + sIL-6R) [1] | Binder
98.8% | 92.2% | 78.3% | 70.2% | 55.3% | 41.2% | 9.6% | > 10 µg/mL | > 10 µg/ml and > 53 nM | B1
103% | 88.5% | 84.8% | 52.8% | 36.1% | 16.3% | 6.5% | > 10 µg/mL | > 10 µg/ml and > 53 nM | B2
98.2% | 93.1% | 88.3% | 82.6% | 82.5% | 72.9% | 25.8% | > 10 µg/mL | > 10 µg/ml and > 53 nM | B3
